Measured values as given in PMC5519978 (2017).
No end group written: not given here.

T1: BRG1 AT-BRD (AT-hook and bromodomain of human BRG1, residues 1434-1569), wild type (human, UniProt P51532 1434-1569)
T1 chain: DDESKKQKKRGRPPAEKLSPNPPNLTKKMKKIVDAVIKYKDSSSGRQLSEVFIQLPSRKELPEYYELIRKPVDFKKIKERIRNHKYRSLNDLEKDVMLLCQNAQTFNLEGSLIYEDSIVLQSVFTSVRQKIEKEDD

T2: hBRM-A AT-BRD (AT-hook and bromodomain of human BRM, long isoform, residues 1358-1508) (human, UniProt P51531 1358-1508, 15N-labelled)
T2 chain: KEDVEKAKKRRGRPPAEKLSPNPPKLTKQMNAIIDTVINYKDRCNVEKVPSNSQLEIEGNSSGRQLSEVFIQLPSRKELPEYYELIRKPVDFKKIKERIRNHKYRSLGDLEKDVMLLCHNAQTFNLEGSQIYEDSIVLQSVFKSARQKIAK

T3: hBRM-A BRD (human BRM bromodomain, long splice isoform, residues 1379-1508) (human, UniProt P51531 1379-1508, 15N-labelled)
T3 chain: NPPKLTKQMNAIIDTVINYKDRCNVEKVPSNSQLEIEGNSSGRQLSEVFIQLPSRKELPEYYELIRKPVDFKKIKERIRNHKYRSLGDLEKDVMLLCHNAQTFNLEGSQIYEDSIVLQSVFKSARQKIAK

T4: hBRM-B AT-BRD (AT-hook and bromodomain of human BRM, short isoform, residues 1358-1399 and 1418-1508) (human, UniProt P51531 1358-1399; P51531 1418-1508, 15N-labelled)
T4 chain: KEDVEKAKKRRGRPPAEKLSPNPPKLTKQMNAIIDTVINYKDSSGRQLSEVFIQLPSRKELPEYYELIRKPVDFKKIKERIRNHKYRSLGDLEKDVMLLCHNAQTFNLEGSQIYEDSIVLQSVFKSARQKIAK

B1: hBRM-B BRD (human BRM bromodomain, short splice isoform, residues 1379-1399 and 1418-1508) (domain or fragment)
chain: NPPKLTKQMNAIIDTVINYKDSSGRQLSEVFIQLPSRKELPEYYELIRKPVDFKKIKERIRNHKYRSLGDLEKDVMLLCHNAQTFNLEGSQIYEDSIVLQSVFKSARQKIAK
modifications: 15N-labelled

Columns and labels:
[1] = molecular target: B1; test: NMR
[2] = molecular target: T1, BRG1 AT-BRD (AT-hook and bromodomain of …); test: NMR
[3] = molecular target: T2, hBRM-A AT-BRD (AT-hook and bromodomain …); test: NMR
[4] = molecular target: T3, hBRM-A BRD (human BRM bromodomain, long …); test: NMR
[5] = molecular target: T4, hBRM-B AT-BRD (AT-hook and bromodomain …); test: NMR
[6] = molecular target: T4, hBRM-B AT-BRD (AT-hook and bromodomain …); test: NMR; pre-bound to DNAI
[7] = molecular target: T4, hBRM-B AT-BRD (AT-hook and bromodomain …); test: NMR; Kd,obs, AT-BRD pre-bound to DNAI
H3(23-34) = test: NMR

| Binder | Kd [1] | Kd [2] | Kd [3] | further results |
| --- | --- | --- | --- | --- |
| AKRHRK(Ac)VLRDN [H4(15-25)K20ac histone peptide] | 2400 µM | – | – | – |
| QTARKSTGGKAPRKQLATK [H3(5-23) histone peptide, unmodified] | > 7000 µM | – | – | – |
| KAARK(Ac)SAPATGG [H3(23-34)K27ac histone peptide] | > 7000 µM | > 3000 µM | > 35000 µM | – |
| KSTGGK(Ac)APRKQ [H3(9-19)K14ac histone peptide] | – | 940 µM | 810 µM | Kd [4]: 880 µM; Kd [5]: 760 µM; Kd [6]: 1120 µM; Kd [7]: 1120 µM |
| B1 | – | – | – | Kd (H3(23-34)): > 16000 µM |
| KQLATK(Ac)AARKS [H3(18-28)K23ac histone peptide] | 3500 µM | – | – | – |
